Test results as given in the supplement of paper PMC7877785.
± gives the uncertainty stated by the source.

Test: self-splicing fitness, log relative to wild type (ln ratio); higher = more splicing; Tetrahymena group I intron in knt gene, E. coli kanamycin selection, DiMSum; sequences stand for … in CUCUCU…GGAGGGAAAAGUUAUCAGGCAUGCACCUGGUAGCUAGUCUUUAAACCAAUAGAUUGCAUCGGUUUAAAAGGCAAGACCGUCAAAUUGCGGGAAAGGGGUCAACAGCCGUUCAGUACCAAGUCUCAGGGGAAACUUUGAGAUGGCCUUGCAAAGGGUAUGGUAAUAAGCUGACGGACAUGGUCCUAACCACGCAGCCAAGUCCUAAGUCAACAGAUCUUCUGUUGAUAUGGAUGCAGUUCACAGACUAAAUGUCGGUCGGGGAAGAUGUAUUCUUCUCAUAAGAUAUAGUCGGACCUCUCCUUAAUGGGAGCUAGCGGAUGAAGUGAUGCAACACUGGAGCCGCUGGGAACUAAUUUGUAUGCGAAAGUAUAUUGAUUAGUUUUGGAGUACUCGUGGUCG
In short: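 Six replicate transformations of E. coli BL21(DE3) with a pET-22b(+) library were grown overnight at 37°C or 30°C. The library randomised all eight P1ex-region intron nucleotides, the intron lying in the knt kanamycin-resistance gene, and plates were LB agar with or without 25 μg/mL kanamycin plus 100 μg/mL carbenicillin, 50 μM IPTG and 0.2% rhamnose. Pooled colonies were amplicon-sequenced on an Illumina HiSeq 2500, and fitness is the DiMSum error-weighted combination of wild-type-normalised replicate fold changes, kanamycin versus none.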

Sequence	self-splicing fitness (ln) (30 °C)	self-splicing fitness (ln) (37 °C)
UUCUAGCAAUAUUACGGUAC	-4.34 ± 0.36	-2.76 ± 0.3
UUCUAGCAAUAUUACGGUAG	-2.29 ± 0.23	-3.15 ± 0.37
UUCUAGCAAUAUUACGUCGA	-1.02 ± 0.13	-0.474 ± 0.15
UUCUAGCAAUAUUACGUCGU	-3.47 ± 0.26	-2.19 ± 0.17
UUCUAGCAAUAUUACGUGUG	-0.91 ± 0.06	-0.542 ± 0.082
UUCUAGCAAUAUUACGUUCU	-3.79 ± 0.46	-1.26 ± 0.18
UUCUAGCAAUAUUACGUUGA	-3.03 ± 0.22	-1.47 ± 0.18
UUGAAGCAAUAUUACGACGG	0.0862 ± 0.13	0.756 ± 0.17
UUGAAGCAAUAUUACGAGAU	-3.15 ± 0.18	-2.87 ± 0.23
UUGAAGCAAUAUUACGCAAU	-2.4 ± 0.21	-2.02 ± 0.16
UUGAAGCAAUAUUACGCCUG	0.189 ± 0.11	0.0665 ± 0.12
UUGAAGCAAUAUUACGCCUU	-2.96 ± 0.13	-1.53 ± 0.14
UUGAAGCAAUAUUACGCGAC	-2.19 ± 0.18	-1.51 ± 0.29
UUGAAGCAAUAUUACGCGAG	-0.254 ± 0.086	0.721 ± 0.12
UUGAAGCAAUAUUACGCGCU	-1.72 ± 0.093	-1 ± 0.13
UUGAAGCAAUAUUACGCGGC	-1.63 ± 0.13	-0.671 ± 0.19
UUGAAGCAAUAUUACGCGUG	-0.176 ± 0.07	-0.123 ± 0.099
UUGAAGCAAUAUUACGGAAG	-1.12 ± 0.14	-0.383 ± 0.2
UUGAAGCAAUAUUACGGAUC	-0.951 ± 0.15	-0.501 ± 0.18
UUGAAGCAAUAUUACGGCCC	-3.04 ± 0.4	-0.425 ± 0.2
UUGAAGCAAUAUUACGGGAA	-0.195 ± 0.11	-0.634 ± 0.15
UUGAAGCAAUAUUACGGGCC		-2.14 ± 0.42

Sequence	self-splicing fitness (ln) (30 °C)	self-splicing fitness (ln) (37 °C)
UUGAAGCAAUAUUACGGUCG	0.0283 ± 0.088	0.283 ± 0.1
UUGAAGCAAUAUUACGGUGA	-0.275 ± 0.08	-0.469 ± 0.09
UUGAAGCAAUAUUACGGUUG	-0.894 ± 0.053	-0.569 ± 0.07
UUGAAGCAAUAUUACGUUCU	0.25 ± 0.084	-0.378 ± 0.1
UUGAAGCAAUAUUACGUUGU	-2.87 ± 0.11	-2.24 ± 0.16
UUGCAGCAAUAUUACGACGU	-3.09 ± 0.29	-1.11 ± 0.14
UUGCAGCAAUAUUACGACUA	0.37 ± 0.1	0.519 ± 0.12
UUGCAGCAAUAUUACGACUU	-0.403 ± 0.1	-0.588 ± 0.08
UUGCAGCAAUAUUACGAGAU	-3.6 ± 0.34	-2.64 ± 0.36
UUGCAGCAAUAUUACGAUCU	-2.34 ± 0.22	-1.78 ± 0.21
UUGCAGCAAUAUUACGCAGA	-2.12 ± 0.11	-1.95 ± 0.096
UUGCAGCAAUAUUACGCAGU		-2.71 ± 0.39
UUGCAGCAAUAUUACGCAUU	-1.92 ± 0.19	-1.42 ± 0.18
UUGCAGCAAUAUUACGCGAA	-0.925 ± 0.16	-0.846 ± 0.14
UUGCAGCAAUAUUACGCGGU	-3.63 ± 0.35	
UUGCAGCAAUAUUACGCUAG	-2.94 ± 0.23	-2.44 ± 0.24
UUGCAGCAAUAUUACGGAAU	-2.83 ± 0.3	
UUGCAGCAAUAUUACGGACU	-1.3 ± 0.18	-1.7 ± 0.29
UUGCAGCAAUAUUACGGAGG	-2.94 ± 0.16	-2.73 ± 0.24
UUGCAGCAAUAUUACGUACG	-0.368 ± 0.08	0.233 ± 0.1
UUGCAGCAAUAUUACGUCAC		-1.35 ± 0.29
